These results are taken from patent US20160311919A1.

To fix the notation:
B1: 1.7.3 (antibody, V domains shown)
VH: QVQLQESGPGLVKPSQTLSLTCTVSGGSISSANYYWTWIRQHPGKGLEWIGYIYYSGSTYCNPSLKSRVIISVDTSKNQFSLKLSSVTAADTAVYYCARGYNWNYFDYWGQGTLVTVSS
VL: DIVMTQSPATLSVSPGERATLSCRASQSVSSNLAWYQERPGQAPRLLIYGASTRATGIPARFSGSGSGTEFTLTISSLQSEDFAVYYCQQYNKWPPWTFGQGTKVEIER
B2: Mab1.7.1 (antibody, human IgG2, V domains shown)
VH: B1 VH
VL: B1 VL
B3: Mab1.10.2 (antibody, human IgG2, V domains shown)
VH: QVQLQESGPGLVKPSETLSLTCTVSGDSISNYYWSWIRQPPGKGLEWIGYFYYSGSTNYNPSLKSRVTISVDTSKNQFSLKLSSVTAADTAVYYCARDRGWADYWGQGTLVTVSS
VL: EIVLTQSPGTLSLSPGERATLSCRTSQSISSSYLAWYQQKPGQVPRLLIYGASSRATGIPDRFSGSGSGTDFTLTISRLEPEDFAVYYCQQYGSSITFGQGTRLEIKR
B4: GPNMB antibody (1.10.1) (antibody, V domains shown)
VH: B3 VH
VL: B3 VL
B5: Mab1.2.2 (antibody, human IgG2, V domains shown)
VH: ITLKESGPTLVKPTQTLTLTCTFSGFSLSAGGVGVGWIRQPPGKALEWLALIYWNDDKRYSPSLRSRLTITKDTSKNQVVLTITNMDPVDTATYYCAHSHYDYDWGSYFDYWGQGTLVTVSS
VL: DIVMTQTPLSLPVTPGEPASISCRSSQSLLDSDDGNTYLDWYLQKPGQSPQLLIYTLSYRASGVPDRFSGSGSGTDFTLNISRVEAEDVGVYYCMQRIEFPITFGQGTRLEIKR
B6: 2-7 (hybridoma of Table 6) (antibody, V domains shown)
VH: QVQLEQSGGGVVQPGRSLRLSCAASGFTFNNYGMHWVRQAPGKGLEWVAVIWYDGSNKYYADSVKGRFTISRDNSKNTLYLQMNSLRAEDTAVYYCAKDEEYYYVSGLDYWGQGTLVTVSS
VL: LTQSPSSLSASVRDRVTITCRASQDISNYLAWYQQKPGKVPNLLIYAASTLQSGVPSRFSGSGSGTDFTLTISSLQPEDVATYYCQKYNSAPLTFGGGTKVEIKR
B7: 2-15 (hybridoma of Table 6) (antibody, V domains shown)
VH: QVQLVESGGGVVQPGRSLRLSCAASGFTFSNYGIHWVRQAPGKGLEWVAVIWFDGRNKYYADSVKGRFTISRDNSKNTLYLQMNSLRAEDAAVYYCARDPFDYGDSFFDYWGQGTLVTVSS
VL: B6 VL
B8: 2-22 (hybridoma of Table 6) (antibody, V domains shown)
VH: QVQLEQSGPGLVKPSQNLSLTCTVSGGSISSGGYFWSWIRQHPGKGLEWIGYIYYSGNTYYNPSLKSRVTISVDTSKNQFSLKLSSVTAADTAVYYCARDYYYDTSGFSYRYDWYYGMDVWGQGTTVTVSS
VL: DIQLTQSPSSLSASVGDRVTITCRASQGIRNDLGWYQQKPGKAPKRLIYAASSLQNGVPSRFSGSGSGTEFTLTISSLQPEDFATYYCLQHNTYPAFGQGTKVEIKR
B9: 2-16 (hybridoma of Table 6) (antibody, V domains shown)
VH: QVQLVESGGGLVKPGGSLRLSCAASGFTFSDYYMTWIRQAPGKGLEWVSYISISGSITHYADSVKGRFTMSRDNAKNSLYLQMNSLRAEDTAVYYCARDGAAAGTDAFDIWGHGTKVTVSS
VL: EIVMTQSPATLSVSPGDRATLSCRASQNVSSNLAWYQQKPGQAPRLLIFGASTRATGIPARFSGSGSGTEFTLTISSLQSEDFAVYYCQQYHYWPTFGPGTKVDIKR
B10: 2-17 (hybridoma of Table 6) (antibody, V domains shown)
VH: QLVQSGAEVKKPGASVKVSCKASGYTFTGFYMHWVRQTPGQGLEWMGWINPNSGGTYYVQKFQGRVTMTRDTSISTVYMELSRLRSDDTAVYYCARDGYSSGEDWFDPWGQGTLVTVSS
VL: DIVMTQTPLSLSVTPGQPASISCKSSQSLLHSGGKTYLYWYLQRPGQPPQLLIYEVSNRFSGVPDRFSGSGSGTDFTLKISRVEAEDVGVYYCMQSIHLPLTFGGGTKVEIKR

One test has as its target GPNMB-V5His (recombinant human GPNMB extracellular domain with C-terminal V5-His tag) (human) (UniProt Q14956). In words: SPR (Biacore), mAb on protein A, GPNMB 880 nM.
Consider B1, for which the Kd is 121 nM, the koff turned out to be 0.00117 s⁻¹ and the kon came to 9650 M⁻¹ s⁻¹.
Regarding B2, the equilibrium dissociation constant (Kd) is 122 nM, the koff stood at 0.00144 s⁻¹ and the kon came to 11800 M⁻¹ s⁻¹.
In the case of B3, the Kd stood at 118 nM, the koff turned out to be 0.000466 s⁻¹ and the kon amounted to 3960 M⁻¹ s⁻¹.
Turning to B4, the Kd came to 209 nM, the koff came out at 0.000885 s⁻¹ and the kon was 4240 M⁻¹ s⁻¹.
With B5, the Kd is 96 nM, the koff is 0.00089 s⁻¹ and the association rate constant (kon) was determined as 9260 M⁻¹ s⁻¹.

A further test shares this target. The test can be described thus: ELISA, coated GPNMB, Ab 333 ng/mL. (An ELISA detects its analyte on a solid surface through an enzyme-linked reagent.)
Consider B1, for which the Avg OD came out at 0.76 OD.
Turning to B6, the Avg OD was 0.68 OD.
As for B7, the Avg OD stood at 0.578 OD.
Still for that read-out and setting: for B8 the value was 0.538 OD.
On to B5, for which the Avg OD came out at 0.356 OD.
B9: the Avg OD came to 0.068 OD.
Still for that read-out and setting: the same measure for B10: 0.01 OD.

The next test shares this target. The test can be described thus: ELISA, coated GPNMB, Ab 111 ng/mL.
Turning to B1, the Avg OD stood at 0.451 OD.
Consider B6, for which the Avg OD was 0.494 OD.
For B7, the Avg OD came to 0.395 OD.
On to B8, for which the Avg OD came to 0.355 OD.
Consider B5, for which the Avg OD came out at 0.199 OD.
Turning to B9, the Avg OD worked out at 0.032 OD.
For the molecule B10, the Avg OD amounted to 0.009 OD.

The next test has the same target. The test can be described thus: ELISA, coated GPNMB, Ab 12.3 ng/mL.
As for B1, the Avg OD is 0.094 OD.
As for B6, the Avg OD was determined as 0.156 OD.
Take B7: the Avg OD is 0.127 OD.
As to B8, the Avg OD was 0.068 OD.
For the molecule B5, the Avg OD turned out to be 0.049 OD.
Same read-out and setting: for B9 the value was 0.011 OD; for B10, 0.011 OD.

Another test shares this target. In words: ELISA, coated GPNMB, Ab 1 ug/mL.
Regarding B1, the Avg OD amounted to 0.871 OD.
As to B6, the Avg OD came out at 0.719 OD.
The same measure, in the same setting: the same measure for B7: 0.568 OD.
As for B8, the Avg OD was 0.707 OD.
For B5, the Avg OD turned out to be 0.499 OD.
In the case of B9, the Avg OD is 0.173 OD.
Turning to B10, the Avg OD worked out at 0.019 OD.

For the next test the target is unchanged. The test can be described thus: ELISA, coated GPNMB, Ab 37 ng/mL.
Take B1: the Avg OD came to 0.239 OD.
On the same count and under the same terms, the same measure for B6: 0.308 OD; for B7: 0.246 OD; for B8: 0.171 OD.
On to B5, for which the Avg OD was 0.094 OD.
On to B9, for which the Avg OD was 0.017 OD.
On to B10, for which the Avg OD was determined as 0.008 OD.

The next test shares this target. The test can be described thus: ELISA, coated GPNMB, Ab 3 ug/mL.
On to B1, for which the Avg OD came out at 1 OD.
For the molecule B6, the Avg OD amounted to 0.827 OD.
Take B7: the Avg OD stood at 0.601 OD.
For B8, the Avg OD was 0.714 OD.
On to B5, for which the Avg OD was 0.763 OD.
Regarding B9, the Avg OD was 0.359 OD.
As for B10, the Avg OD was found to be 0.053 OD.

As usually defined, the Kd is the free concentration of one partner at which half of the binding sites on the other are occupied at equilibrium, for simple one-to-one binding. What is called koff is the rate constant with which the complex falls apart. The term kon denotes the second-order rate constant of association.
